According to US20210388087A1 (Chugai, published 2021):

Biological target: T1, Human CD137 ECD (human)
T1 construct: entry includes C-terminal His-tag and biotin acceptor peptide; also called human CD137 extracellular domain; 4-1BB
Test: Biacore SPR, vs parent H183/L072

T1 sequence (chain, as listed by the source limits assumed): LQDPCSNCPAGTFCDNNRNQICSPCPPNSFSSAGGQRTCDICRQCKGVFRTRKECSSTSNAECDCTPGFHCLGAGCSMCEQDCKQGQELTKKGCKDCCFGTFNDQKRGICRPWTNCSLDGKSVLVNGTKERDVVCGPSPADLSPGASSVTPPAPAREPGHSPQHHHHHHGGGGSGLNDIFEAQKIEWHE

Row | Binder | fold change of affinity
1 | H183/L072 VL V51T (antibody, name in Kabat numbering, V domains shown, Dual-Ig) VH: QVQLVESGGGLVQPGRSLRLSCAASGFTFSNAWMHWVRQAPGKGLEWVAQIKDKGNAYAAYYAPSVKGRFTISRDDSKNSIYLQMNSLKTEDTAVYYCHYVHYASASTVLPAFGVDAWGQGTTVTVSS VL: DIVMTQSPLSLPVTPGEPASISCQASQELVHMNRNTYLHWYQQKPGQAPRLLIYKTSNRFPGVPDRFSGSGSGTDFTLKISRVEAEDVGVYYCAQGTSVPFTFGQGTKLEIK | 0.6 fold
2 | H183/L072 VL V94A (antibody, name in Kabat numbering, V domains shown, Dual-Ig) VH: QVQLVESGGGLVQPGRSLRLSCAASGFTFSNAWMHWVRQAPGKGLEWVAQIKDKGNAYAAYYAPSVKGRFTISRDDSKNSIYLQMNSLKTEDTAVYYCHYVHYASASTVLPAFGVDAWGQGTTVTVSS VL: DIVMTQSPLSLPVTPGEPASISCQASQELVHMNRNTYLHWYQQKPGQAPRLLIYKVSNRFPGVPDRFSGSGSGTDFTLKISRVEAEDVGVYYCAQGTSAPFTFGQGTKLEIK | 0.1 fold
3 | H183/L072 VL V51W (antibody, name in Kabat numbering, V domains shown, Dual-Ig) VH: QVQLVESGGGLVQPGRSLRLSCAASGFTFSNAWMHWVRQAPGKGLEWVAQIKDKGNAYAAYYAPSVKGRFTISRDDSKNSIYLQMNSLKTEDTAVYYCHYVHYASASTVLPAFGVDAWGQGTTVTVSS VL: DIVMTQSPLSLPVTPGEPASISCQASQELVHMNRNTYLHWYQQKPGQAPRLLIYKWSNRFPGVPDRFSGSGSGTDFTLKISRVEAEDVGVYYCAQGTSVPFTFGQGTKLEIK | 0.1 fold

More lines, now with the values ahead:

Row | fold change of affinity | Binder
4 | 0 fold | H183/L072 VL V94F (antibody, name in Kabat numbering, V domains shown, Dual-Ig) VH: QVQLVESGGGLVQPGRSLRLSCAASGFTFSNAWMHWVRQAPGKGLEWVAQIKDKGNAYAAYYAPSVKGRFTISRDDSKNSIYLQMNSLKTEDTAVYYCHYVHYASASTVLPAFGVDAWGQGTTVTVSS VL: DIVMTQSPLSLPVTPGEPASISCQASQELVHMNRNTYLHWYQQKPGQAPRLLIYKVSNRFPGVPDRFSGSGSGTDFTLKISRVEAEDVGVYYCAQGTSFPFTFGQGTKLEIK
5 | 0 fold | H183/L072 VL V94D (antibody, name in Kabat numbering, V domains shown, Dual-Ig) VH: QVQLVESGGGLVQPGRSLRLSCAASGFTFSNAWMHWVRQAPGKGLEWVAQIKDKGNAYAAYYAPSVKGRFTISRDDSKNSIYLQMNSLKTEDTAVYYCHYVHYASASTVLPAFGVDAWGQGTTVTVSS VL: DIVMTQSPLSLPVTPGEPASISCQASQELVHMNRNTYLHWYQQKPGQAPRLLIYKVSNRFPGVPDRFSGSGSGTDFTLKISRVEAEDVGVYYCAQGTSDPFTFGQGTKLEIK
6 | 0 fold | H183/L072 VL V94E (antibody, name in Kabat numbering, V domains shown, Dual-Ig) VH: QVQLVESGGGLVQPGRSLRLSCAASGFTFSNAWMHWVRQAPGKGLEWVAQIKDKGNAYAAYYAPSVKGRFTISRDDSKNSIYLQMNSLKTEDTAVYYCHYVHYASASTVLPAFGVDAWGQGTTVTVSS VL: DIVMTQSPLSLPVTPGEPASISCQASQELVHMNRNTYLHWYQQKPGQAPRLLIYKVSNRFPGVPDRFSGSGSGTDFTLKISRVEAEDVGVYYCAQGTSEPFTFGQGTKLEIK
7 | 1.8 fold | H183/L072 VL V94H (antibody, name in Kabat numbering, V domains shown, Dual-Ig) VH: QVQLVESGGGLVQPGRSLRLSCAASGFTFSNAWMHWVRQAPGKGLEWVAQIKDKGNAYAAYYAPSVKGRFTISRDDSKNSIYLQMNSLKTEDTAVYYCHYVHYASASTVLPAFGVDAWGQGTTVTVSS VL: DIVMTQSPLSLPVTPGEPASISCQASQELVHMNRNTYLHWYQQKPGQAPRLLIYKVSNRFPGVPDRFSGSGSGTDFTLKISRVEAEDVGVYYCAQGTSHPFTFGQGTKLEIK
8 | 0 fold | H183/L072 VL V94G (antibody, name in Kabat numbering, V domains shown, Dual-Ig) VH: QVQLVESGGGLVQPGRSLRLSCAASGFTFSNAWMHWVRQAPGKGLEWVAQIKDKGNAYAAYYAPSVKGRFTISRDDSKNSIYLQMNSLKTEDTAVYYCHYVHYASASTVLPAFGVDAWGQGTTVTVSS VL: DIVMTQSPLSLPVTPGEPASISCQASQELVHMNRNTYLHWYQQKPGQAPRLLIYKVSNRFPGVPDRFSGSGSGTDFTLKISRVEAEDVGVYYCAQGTSGPFTFGQGTKLEIK
